# Reference: the RNAGym collection of RNA variant scans (doi:10.1073/pnas.2313332121)
# B1: TPR t1 (parent)
# chain: GACCAAUCUGCCCUCAGAGCUCGAGAACAUCUUCGGAUGCAGAGGAGGCAGGCUUCGGUGGCGCGAUAGCGCCAACGUCCUCAACCUCCAAUGCAUCCCACCACAUGAUGAUGCCUGAAGAGCCUUGGUUUUUUG
# Variants of: B1
# Assay: polymerase ribozyme fitness, log enrichment relative to wild type (log ratio); higher = more active; in vitro selection for triplet polymerase activity
# Procedure, shortened: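 Mutant libraries of both subunits of a heterodimeric triplet polymerase ribozyme were PCR-built, transcribed, and selected once in triplicate, with frozen incubation at −7 °C and capture of gel-excised extended constructs on streptavidin beads before RT-PCR. Illumina sequencing of input and output libraries was filtered to genotypes with ≥10 input reads and ≥1 read per output. Fitness is the logarithm of genotype enrichment over wild-type enrichment, using inverse-variance-weighted replicate averages. The logarithm is base 2.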
row,Variant,polymerase ribozyme fitness (log ratio)
1,GACCAAUCUGCCCUCAGCUCUCGAGAACAUCUUCGGAUGCAGAGGAGACAGGCUUCGCUGGGGCGAUAGCGCCAACGUCCUCAACCUCCAAUGCAUCCCACCACAUGAUGAUGCCUGAAGAGCAUUGGUUUUUUG,-5.33
2,GACCAAUCUGCUCUCAGAGCUCGAGAACAUCUUCGGAUGCAGAGGAGGCAGGCUUCGGUGCCGCGAUAGCGCCAACGUCCUCAACCUCCAAUGUAUCCCACCACAUGAUGAUGCCUGAAGAGCCUUGGUUUUUUG,-0.805
3,GACCAAUCUGCCCUCCGAGCUCGAGAACAUCUUCGGAUGCAGAGGAGGCAGGCUUCGGUGGCGCGAUAGCGCCAACGUCCUGAACCUCCAAUGCAUCCCACCACAUGAUGAUGCCUGAAGAGCCUUGGUUUUUUG,-3.22
4,GACCAAUCUGCCCUCAGAGCUCGAGAACAUCUUCGGAUGCAGAGGAGGCAGGCUUCGGUGGUGCGAUAGCGCCAACGUCCUCAACCUCCAAUGCAUCCCACCACAUGAUGAUGCCUGAAGAGCCUGGGUUUUUUG,-3.05
5,GACCAAUCUGCACUCAGAGCUCGAGAACAUCUUCGGAUGCAGAGGAGGCAGGUUUCGGUGGCGCGAUAGCGCCAACGUCCUCAACCUCCAAUGCAUCCCACCACAUGAUGAUGCCUGAAGAGCCUUGGUUUUUUG,-0.724
6,GACCAAUAUGCCCUCAGAGCUCGAGAACAUCUUCGGAUGCAGAGGAGGCAGGCUUCGGUGGCGCGAUAGCGCCAACGUCCUCAACCUCCAAUGCAUCCCACCACAUGAUAAUGCCUGAAGAGCCUUGGUUUUUUG,-0.267
7,GACCAAUCUGCCCUCAGAGCUCGAGAACAUCUUCGUAUGCAGAGGAGGCAGGCUUCGGUGACGCGAUAGCGCCAACGACCUCAACCUCCAAUGCAUCCCACCACAUGAUGAUGCCUGAAGAGCCUUGGUUUUUUG,-0.679
8,GACCAAUCUGCCCUCAGAGCUCGAGAAUAUCUUCGGAUGUAGAGGAGGCACGCUUCGGUGGCGCGAUAGCGCCAAAGUCCUCAACCUCCAAUGCAUCCCACCACAUGAUGAUGCCUGAAGAGCCUUGGUUUUUUG,-6.21
9,GACCAAUCUGCCCUCAGAGAUCGAGAACAUCUUCGGAUGCAGAUGAGGCAGGCUUCGGUGGCGCGAUAACGCCAACGUCCUCAACAUCCAAUGCAUCCCACCACAUGAUGAUGCCUGAAGAGGCUUGGUUUUUUG,-6.49
10,GACCAAUCUGCCCUCAGAUCACGAGAACAUCUUCGGAUGCAGAGGACGCAGGCUUCGGUGGCGCGAUAGCGCCAACGUCCUCAACCUCCCAUGCAUCCCACCACAUGAUGAUCCCUGAAGAGCCUUGGUUUUUUG,-4.49
11,GACCAAUCUGCCCUCAGCGCUCGAGAACAUCUUCGGAUGCAGAGGAGGCAGGCUUCGGUGGCGCGAUAGCGCCAACGUCCUCAACCUCCAAUGCAUCCCACCACAUGAUGAUGCUUGAAGAGCCUUGGUUUUUUG,-2.17
12,GACCAAUCUGCCCUCGGAGCUCGAGAACAUCUUCGGAUGCAGAGGAGGCACGCUUCGGUGGCGCGAUAGCGCCAACGUCCUAAACCUCCAAUGCAUCCCACCACAUGAUGAUGCCUGAAGAGCGUUGGUUUUUUG,-3.19
13,GACCAAUCUGCCCUCAGAGCUCGAGAACAUCUUCGGAUGCAGAGGAGGCAGGCUUCGGUGGCGCGAUAGCGCCAACGUCCUCAACCUCCAAUGGAUCCCACCACAUGAUGAUGCAUGAAGAGCCUUGGUUUUUUG,-0.789
14,GACCACUCUGCCCUCAGAGCUCGAGAACAUCUUCGGAUGCAGAGGAGGCAGGCUUCGGUGGCGCGAUAGCGCCAACGAACUCAACCUCCAAUGCAUCCCACCACAUGAUGAUGCCUGAAGAGCCUUGGUUUUUUG,-3.63
15,GACCAAUCUGCCCUCAGAGCUCGAGAAUAUCUUCGGAUGCAGAGGAGGCAGGCUUCGGUGGCGCGAUAGCGGCAACGUCCUCAACCUCCAAUGCAUCCCACCACAUGAUGAUGCCUGAAGAGCCUUGGUUUUUUG,-2.23
16,GACCAAUCUGCCCUCAGAGCUCGAGAACAUCUUCGGGUGCAGAGGAGGCAGGCUUGGGUGGCGCGAUAGCGCCAACGUCCUCAACCUCCAAUGCACCCCACCACAUGAUGAUGCCUGAAGAGCCUUGGUUUUUUG,-0.381
17,GACCAAUCUGCCCUCAGAGCUCGAGAACAUCUUCGGAUGCAGAGGGGGCAGGCUUCGGUGGCCCGAUAGCGCCAACGUCCUCAACCUCCAAUGCAUCCCACCACAUGAUUAUGCCAGAAGAGCCUUGGUCUUUUG,-4.2
18,GACCAAUCUUCCCUCAGAGCUCGAGAACAUCUUCGGAUGCAGAGGAGGUAGGCUUCGGUGGCGCGAUAGCGCCAACGUCCUCAACCUCCAAUGCAUCCCACCACAUGAUGAUGCCUGAAGAGCCUUGGUUUUUUG,-0.491
19,GACCAAUCUCCCCUCAGAGCUCGAGAACAUCUUCGGAUACAGAGGAGGCAGGCUUCGGUGACGCGAUAGCGCCAACGUCCUCAACCUCCAAUGCAUCCCACCACAUGAUGAUGCCUGAAGAGCCUUGGUUUUUUG,-1.27
20,GACCAAUCUACCCUCAGAGCUCGAGAACAUCUUCGGAUGCAGAGGAGGCAGUCUUCGGUGGCACGAUAGGGCCAACGUCCUCAACCUCCAAUGCAUCCCACCACAUGAUGAUGCCUGAAGAGCCUUGGUUUUUUG,-2.51
21,GACCAAUCUGCACUCAGAGCUCGAGAACAUCUUCGGGUGCAGAGGAGGCAGGCUUCGGUGGCGCGAUAGCGCCAACGUCCUCAACCUCCAAUGCAUCCCACCACAUGAUGAUGCCUGAAGAGCCUUGGUUUAUUG,-1.37
